Laboratory results: paper PMC5238595

How the values were obtained:
[1] = biological target: A47934 PCP-X di-domain construct with maltose binding protein as N-terminal fusion partner (Streptomyces toyocaensis)
[2] = biological target: PCP-X construct from teicoplanin biosynthesis with MBP as N-terminal fusion partner (Actinoplanes teichomyceticus) (UniProt Q70AZ6)
[3] = biological target: hybrid PCP-X construct: teicoplanin PCP-domain and A47934 X-domain, with MBP as N-terminal fusion partner (Actinoplanes teichomyceticus | Streptomyces toyocaensis)
[4] = biological target: hybrid PCP-X construct: A47934 PCP-domain and teicoplanin X-domain, with MBP as N-terminal fusion partner (Streptomyces toyocaensis | Actinoplanes teichomyceticus) (UniProt Q70AZ6)

Chain of UniProt Q70AZ6 (Q70AZ6 entry or part of it): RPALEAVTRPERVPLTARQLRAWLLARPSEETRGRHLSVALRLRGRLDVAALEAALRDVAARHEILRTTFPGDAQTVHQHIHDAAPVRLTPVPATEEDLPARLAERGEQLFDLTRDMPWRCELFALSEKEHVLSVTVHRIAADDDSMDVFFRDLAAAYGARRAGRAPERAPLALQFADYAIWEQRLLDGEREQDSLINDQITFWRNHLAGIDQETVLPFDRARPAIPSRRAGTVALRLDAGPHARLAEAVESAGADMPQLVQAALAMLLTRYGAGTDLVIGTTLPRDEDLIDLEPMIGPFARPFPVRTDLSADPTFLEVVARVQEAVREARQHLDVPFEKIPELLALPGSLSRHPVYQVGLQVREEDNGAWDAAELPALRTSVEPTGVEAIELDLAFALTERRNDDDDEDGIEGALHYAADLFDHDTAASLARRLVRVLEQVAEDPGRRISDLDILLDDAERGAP

StaF, the D-O-E ring forming Oxy enzyme (cytochrome P450) from A47934 biosynthesis
StaF turnover activity (bicyclic product / sum of mono- and bicyclic product, HPLC-MS) on Act7-rac-Hpg7 bound to MBP-PCP-Xsta, with StaH (entry 4) [1]: 25.5%
StaF turnover activity (bicyclic product / sum of mono- and bicyclic product, HPLC-MS) on Tei7-L-Hpg7 bound to MBP-PCP-Xsta, with StaH (entry 1) [1]: 23.8%
StaF turnover activity (bicyclic product / sum of mono- and bicyclic product, HPLC-MS) on Act7-rac-Hpg7 bound to MBP-PCP-Xtei, with StaH (entry 8) [2]: 24.9%
StaF turnover activity (bicyclic product / sum of mono- and bicyclic product, HPLC-MS) on Tei7-L-Hpg7 bound to MBP-PCP-Xtei, with StaH (entry 5) [2]: 5.7%
StaF turnover activity (bicyclic product / sum of mono- and bicyclic product, HPLC-MS) on Act7-rac-Hpg7 bound to MBP-PCPtei-Xsta, with StaH (entry 16) [3]: 31.5%
StaF turnover activity (bicyclic product / sum of mono- and bicyclic product, HPLC-MS) on Tei7-L-Hpg7 bound to MBP-PCPtei-Xsta, with StaH (entry 13) [3]: 21.1%
StaF turnover activity (bicyclic product / sum of mono- and bicyclic product, HPLC-MS) on Act7-rac-Hpg7 bound to MBP-PCPsta-Xtei, with StaH (entry 12) [4]: 7.8%
StaF turnover activity (bicyclic product / sum of mono- and bicyclic product, HPLC-MS) on Tei7-L-Hpg7 bound to MBP-PCPsta-Xtei, with StaH (entry 9) [4]: 2.9%
